Experimental data taken from patent US12611470B2, “Chromatin-opening element for stable long term gene expression” (CZ Biohub SF, LLC, priority 2019, dated 2026).

How the values were obtained:
[1] = tested on: P19 murine embryonic carcinoma stem cell line; experiment: Stable transfection silencing screen of candidate UCOEs linked to Ef1α-GFP; assay type: cell-based, mouse; settings: UCOE-Ef1α-GFP stable transfection
Experimental: The candidate regions tested were Candidates 1, 1R, 3, 5, 6, 6R, 7, 8, 9R, 10, and 10R, with “R” denoting that the reverse orientation of the candidate region was tested. As a negative control, the stable expression construct without a UCOE or candidate region was assessed (Ef1a). As a positive control, the 2.2 kB A2UCOE sequence, as well as the 1.2 kB reverse orientation sequence 3′UCOE, were cloned into the same reporter construct as the candidate sequences. The percent GFP positive in the population was monitored as a metric for silencing by flow cytometry analysis with each passage, with the change (difference between final and initial time points) plotted on the graph (Δ% GFP+).
The assay is the same stable transfection screen format described for FIG. 2B. […]
Fluorescence data throughout silencing experiments was obtained using a MACSQuant® VYB flow cytometer (Miltenyi Biotec). EGFP was measured through the 488-nm laser and 525/50 nm band pass filter. Flow cytometry data was analyzed using the FlowJo™ single cell flow cytometry analysis software (Tree Star). […]
Candidates were initially screened in the P19 murine embryonic carcinoma stem cell line. […] As P19 cells readily integrate DNA, a stable transfection of the expression construct performed. […]

[2] = tested on: P19 cells; experiment: Standalone (intrinsic) promoter activity screen, UCOE-GFP construct lacking the Ef1a promoter; assay type: cell-based, mouse; settings: for inherent promoter activity: synthetic construct without other promoter
From the text: A schematic representation of the expression construct in which the candidate region (UCOE) is inserted upstream of the GFP gene in the absence of any other promoter sequences as used is shown as an inlay. As positive controls, the Ef1α promoter, the 2.2 kB A2UCOE sequence, and the 1.2 kB reverse orientation sequence 3′UCOE, were cloned into the same reporter construct as the candidate sequences. The percent GFP positive in the population was monitored as a metric for gene expression by flow cytometry analysis with each passage (% GFP). Stably transfected cells were assayed for % GFP+ and median fluorescent intensity (normalized to Ef1a promoter control). Data is reported as mean±SD from biological duplicates.
P19 cells were seeded at 25,000 cells/well in 12 well plates. 24 h after seeding, cells were transfected using Lipofectamine™ 2000 transfection reagent (Thermo Fisher) according to the manufacturer's instructions using 500 ng DNA/well and 2.5 μL of Lipofectamine per well. 24 hours after transfection, selection was initiated with 1 μg/mL puromycin (Sigma-Aldrich) in regular growth media and, from then on, cells were passaged at 1:15 or 1:20 dilutions whenever cells were 80-90% confluent (every 2-3 days) with frequent refreshing of puromycin-containing media to clear dead cells. After approximately 14-16 days, remaining cells were assumed to be stably transfected and were changed to regular growth media to initiate silencing experiments. During silencing experiments, the P19 cells were passaged every 2-3 days and re-seeded at 15,000 cells/well.
Fluorescence data throughout silencing experiments was obtained using a MACSQuant® VYB flow cytometer (Miltenyi Biotec). EGFP was measured through the 488-nm laser and 525/50 nm band pass filter. Flow cytometry data was analyzed using the FlowJo™ single cell flow cytometry analysis software (Tree Star). After being gated for singlets and viability, GFP+ gates in FlowJo were drawn such that a non-transfected or non-transduced P19 cell population was at 1% GFP+. Median values reported are of cells within the GFP+ gate, both % GFP positive and median are reported with the standard deviation of biological replicates.
As A2UOCE dually functions as a protective regulatory element and a universal promoter, the candidate UCOEs were further screened for standalone promoter activity. A similar experiment as the aforementioned screen was performed using a similar expression construct that lacked the Ef1a promoter. This construct was used to assess whether the candidate sequences could drive reporter expression and act as stand-alone functional promoters. Candidates were compared to the positive control of the EF1a promoter, which had ˜70% GFP+ cells after two weeks of antibiotic selection, showing a distinct positive population in the fluorescence histogram. The GFP+ gate (i.e., flow cytometry fluorescence threshold for GFP+ cells) was set to encompass 1% of untransfected cells and then applied to all samples. […] Such a result appears as a bimodal distribution on a histogram, with a peak below the gate threshold (i.e., GFP negative cell population) and a peak above it (i.e., the distinct GFP positive population mentioned above). […] In this study, a % GFP+ of at least 50% is considered to reflect the existence of a second population in the histograms, and thus a binary indicator of promoter function. […] The median GFP intensity of the GFP+ population was used a measure of the strength of the promoter, and normalized to the Ef1a positive control as shown in FIG. 2C.
This aligns with previous observations that the RNPA2B1 promoter is much stronger than that of CBX3 (Zhang, F., et al. (2010) Mol Ther, 18, 1640-1649 (7)). However, the RNPA2B1 promoter in A2UCOE is only 30% as strong as the EF1α promoter. […]

B1: Candidate 6: Full length SRF-UCOE, SEQ ID NO:1; region between human SURF1 and SURF2 including first introns, chr9 (nucleic acid, listed as Homo sapiens)
DNA: GCACACGACCACAATTCCACTGAAAGCATTTTAATACGGAACTTGTCACTCCCAGGGAGCCTCCGCTCAGCCGGCAGTTGGTTCATTTCAATCCCCACGACAACCCTTCAAAGTGCAGGGCAGACAGCAGGTGGCTCTGCCCAGGCGCCTGGATCACAGCCCGGCCTGCAGCCCTCACCTGGGCGCGGGGAGACCCTGAGGACGCTCCTCCAGGCGGCGCTGGCCGGGGCCTGCGGACACGGACGGGCGGGCTGAGCTCCGGGACCCCTCCCCGCGCCCCGCACCCCGCACCCCGCACCCCGCACCCCGCACCCGGCGCTCACCCGTCCCAGCCCCGCCGCCCGCAGCCCCAGCTGCAACGCAGCCACCGCCGCCATCGCACCCGGCCCCGCGGGCGCTTCCGGGACGCAGGAGGCATCTGCATCCGGGGCGCCGCTGAGTCCCGCCCAGAGCCCCGCCCCCGGCTCCAGGTTCTGCGAGCGGCTTCCGCCGGGCTGCTCCGCGGGCGCGTCGGCCATGAGCGAGTTGCCGGGCGACGTGCGGGCGTTTCTGCGGGAGCACCCGAGCCTGCGGCTCCAGACGGACGCCCGCAAGGTTCGCAGCGCGGGAGGGGAACGGAGTGGCGGAGAAGGGCGCAGTTGGGATGAGGGGCTGAGGGGAGGGCAGGGGAGAGGAGAGGGCAGGGGAGAGGGGAGAGGGGAGAGCAGGAGAGAGGGGAAGGCAGGGGAGAGGGCGCGGCGGGATCAGGGGAGGAGAGGGAAGGGGGCGCGGCAGGAGGGGGCACCAGGGAGCGGAGCCCTGGCCCTCCTGACGTCCTGCCCGCCCACGCGTCCGCAGGTGAGGTGCATCCTGACAGGTCACGAGCTGCCCTGCCGCCTGCCGGAGCTCCAGGTCTACACCCGCGGCAAAAAGTACCAGCGGCTGGTCCGCGCCTCCCCGGCCTTCGACTATGCAGAGTTCGAGCCGCACATCGTGCCCAGCACCAAGAACCCGTAGGTGGTC
**Q.** With B1 as the molecule, how does the “silencing resistance / stable expression relative to the negative (Ef1α-only) control” value ([1]; 19 days) read?
**A.** significant improvement in stable expression

**Q.** What about the “loss in percent GFP positive cells over the time period” value ([1]; over 19 days after puromycin removal, flow cytometry) of the same molecule?
**A.** about 6%

**Q.** What about the “peaks in fluorescence histogram (binary indicator of promoter function)” value ([2]; at least 50% GFP+ = second population) of the same molecule?
**A.** only one peak

**Q.** What about the “% GFP+ cells, representative flow cytometry example” value ([2]; promoterless GFP construct, after two weeks of antibiotic selection, one representative example) of the same molecule?
**A.** 1.99%

**Q.** And the inherent promoter activity [2]?
**A.** did not exhibit inherent promoter activity

**Q.** What about the inherent promoter activity ([2]; listed as SRF-UCOE element) of the same molecule?
**A.** does not initiate transcription
